The record followed here is patent US20130149305A1 (UNIVERSITY OF MARYLAND BALTIMORE COUNTY, published 2013).

The target in assay [1] is human CD28 on PHA-activated T cells of PBMC (human) (UniProt P10747). Nature of the assay: cell-based or functional assay.
Assay [2] concerns the target T1, mouse PDL1 co-expressed with mouse CD80 on CD80-transfected 4T1 cells (4T1/CD80) (mouse, UniProt Q9EP73 19-290; Q00609 38-306).
T1 construct: whole, on cells; also called PDL1 on 4T1/CD80 cells; PDL1+CD80+ 4T1/CD80 cells
Briefly: flow cytometry on IFN-gamma-treated cells, sPD1-Fc detected with anti-PD1-APC. (In flow cytometry, cells or beads pass a laser one at a time.)

human CD28 on PHA-activated T cells of PBMC (human), sequence (P10747 19-220): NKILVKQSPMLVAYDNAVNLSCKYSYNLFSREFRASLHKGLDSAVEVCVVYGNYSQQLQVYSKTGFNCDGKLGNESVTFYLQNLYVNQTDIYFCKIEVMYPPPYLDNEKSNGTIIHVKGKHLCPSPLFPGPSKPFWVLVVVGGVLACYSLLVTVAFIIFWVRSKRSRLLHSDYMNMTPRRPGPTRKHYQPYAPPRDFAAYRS
T1 sequence (Q9EP73 19-290, chain 1 of 2): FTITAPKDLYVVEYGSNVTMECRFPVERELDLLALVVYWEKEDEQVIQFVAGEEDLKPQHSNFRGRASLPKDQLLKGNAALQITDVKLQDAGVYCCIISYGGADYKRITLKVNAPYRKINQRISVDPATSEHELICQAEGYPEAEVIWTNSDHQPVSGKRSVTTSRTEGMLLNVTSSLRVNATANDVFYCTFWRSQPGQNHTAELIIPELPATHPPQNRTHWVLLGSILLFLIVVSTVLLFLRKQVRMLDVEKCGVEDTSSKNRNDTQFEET
T1 sequence (Q00609 38-306, chain 2 of 2): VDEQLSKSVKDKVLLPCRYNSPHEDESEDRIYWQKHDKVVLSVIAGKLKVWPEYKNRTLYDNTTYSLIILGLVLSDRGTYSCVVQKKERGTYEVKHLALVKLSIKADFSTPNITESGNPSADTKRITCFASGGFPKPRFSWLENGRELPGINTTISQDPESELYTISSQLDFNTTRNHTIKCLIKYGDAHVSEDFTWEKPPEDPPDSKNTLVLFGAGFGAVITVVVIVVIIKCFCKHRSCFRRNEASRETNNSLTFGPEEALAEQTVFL

In assay [1], “soluble CD80-Fc: extracellular two domains of human CD80 fused to the Fc domain of IgG1 (Fc fusion)” showed an increase of IFNγ production by PHA-activated PBMC, no tumor cells (ELISA) of 14 to 28%.

B1: recombinant mouse PD1-Fc fusion protein (Fc fusion, UniProt Q02242 25-167, looked up)
chain: LEVPNGPWRSLTFYPAWLTVSEGANATFTCSLSNWSEDLMLNWNRLSPSNQTEKQAAFCNGLSQPVQDARFQIIQLPNRHDFHMNILDTRRNDSGIYLCGAISLHPKAKIEESPGAELVVTERILETSTRYPSPSPKPEGRFQ
notes: Recombinant reagent; also called sPD1-Fc (mouse); soluble form of PD1; not shown: Fc part
For the molecule B1, the binding result in assay [2] is on record as “no binding”.
